This data set is described as follows: self-splicing fitness, log relative to wild type (ln ratio); higher = more splicing; Tetrahymena group I intron in knt gene, E. coli kanamycin selection, DiMSum; sequences stand for … in CUCUCU…GGAGGGAAAAGUUAUCAGGCAUGCACCUGGUAGCUAGUCUUUAAACCAAUAGAUUGCAUCGGUUUAAAAGGCAAGACCGUCAAAUUGCGGGAAAGGGGUCAACAGCCGUUCAGUACCAAGUCUCAGGGGAAACUUUGAGAUGGCCUUGCAAAGGGUAUGGUAAUAAGCUGACGGACAUGGUCCUAACCACGCAGCCAAGUCCUAAGUCAACAGAUCUUCUGUUGAUAUGGAUGCAGUUCACAGACUAAAUGUCGGUCGGGGAAGAUGUAUUCUUCUCAUAAGAUAUAGUCGGACCUCUCCUUAAUGGGAGCUAGCGGAUGAAGUGAUGCAACACUGGAGCCGCUGGGAACUAAUUUGUAUGCGAAAGUAUAUUGAUUAGUUUUGGAGUACUCGUGGUCG
The method, boiled down:
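Six replicate transformations of E. coli BL21(DE3) with a pET-22b(+) library were grown overnight at 37°C or 30°C. The library randomised all eight P1ex-region intron nucleotides, the intron lying in the knt kanamycin-resistance gene, and plates were LB agar with or without 25 μg/mL kanamycin plus 100 μg/mL carbenicillin, 50 μM IPTG and 0.2% rhamnose. Pooled colonies were amplicon-sequenced on an Illumina HiSeq 2500, and fitness is the DiMSum error-weighted combination of wild-type-normalised replicate fold changes, kanamycin versus none.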

From the supplement of paper PMC7877785 come the findings set out here.

± gives the uncertainty stated by the source.

As for CCGCAGCAAUAUUACGUCCA, the “self-splicing fitness (ln)” value is, setting by setting: (30 °C) -2.28 ± 0.27; (37 °C) 0.175 ± 0.2. For the sequence CCGCAGCAAUAUUACGUCCG, the “self-splicing fitness (ln)” value by setting is: (30 °C) -0.393 ± 0.084; (37 °C) -0.499 ± 0.09. For the sequence CCGCAGCAAUAUUACGUGCA, the “self-splicing fitness (ln)” value was -3.71 ± 0.33 (30 °C) and -1.54 ± 0.14 (37 °C). Consider CCGCAGCAAUAUUACGUGCU, for which the “self-splicing fitness (ln)” value (30 °C) was -2.05 ± 0.27. With CCGCAGCAAUAUUACGUGGC, the “self-splicing fitness (ln)” value by setting is: (30 °C) -3.29 ± 0.16; (37 °C) -2.3 ± 0.2. The corresponding values for CCGCAGCAAUAUUACGUUCG are -0.778 ± 0.056 and -0.0727 ± 0.077.

Consider CCGGAGCAAUAUUACGAAAG, for which the “self-splicing fitness (ln)” value is -2.31 ± 0.11 (30 °C) and -1.05 ± 0.12 (37 °C). In the case of CCGGAGCAAUAUUACGAACU, the “self-splicing fitness (ln)” value is -2.29 ± 0.31 (30 °C) and -0.657 ± 0.28 (37 °C). As for CCGGAGCAAUAUUACGACAA, the “self-splicing fitness (ln)” value (30 °C) is -3.72 ± 0.43 and the “self-splicing fitness (ln)” value (37 °C) is -2.16 ± 0.3.

Regarding CCGGAGCAAUAUUACGCACG, the “self-splicing fitness (ln)” value (37 °C) was -0.516 ± 0.21. In the case of CCGGAGCAAUAUUACGCCAC, the “self-splicing fitness (ln)” value reads like this: (30 °C) -3.02 ± 0.49; (37 °C) 0.445 ± 0.34. As to CCGGAGCAAUAUUACGCCUC, the “self-splicing fitness (ln)” value (37 °C) is -2.47 ± 0.41. In the case of CCGGAGCAAUAUUACGCGGA, the “self-splicing fitness (ln)” value reads like this: (30 °C) -3.34 ± 0.23; (37 °C) -2.74 ± 0.29. The corresponding values for CCGGAGCAAUAUUACGCGGG are -4.25 ± 0.39 and -2.25 ± 0.19. For CCGGAGCAAUAUUACGGACA the same measures were -2.43 ± 0.42 and -2.97 ± 0.47. Regarding CCGGAGCAAUAUUACGGACG, the “self-splicing fitness (ln)” value runs as follows: (30 °C) -2.82 ± 0.19; (37 °C) -1.31 ± 0.25. The corresponding values for CCGGAGCAAUAUUACGGAGA are -3.99 ± 0.39 and -2.24 ± 0.25.

Consider CCGGAGCAAUAUUACGGCCG, for which the “self-splicing fitness (ln)” value is, setting by setting: (30 °C) -2.44 ± 0.26; (37 °C) -0.644 ± 0.21. For CCGGAGCAAUAUUACGGCUU, the “self-splicing fitness (ln)” value is -0.296 ± 0.29 (30 °C) and -1.49 ± 0.33 (37 °C).

In the case of CCGGAGCAAUAUUACGGGCC, the “self-splicing fitness (ln)” value (37 °C) was -2.03 ± 0.33. For the sequence CCGGAGCAAUAUUACGGGUA, the “self-splicing fitness (ln)” value (30 °C) was -3.53 ± 0.4. In the case of CCGGAGCAAUAUUACGGUAG, the “self-splicing fitness (ln)” value (30 °C) is -2.71 ± 0.14 and the “self-splicing fitness (ln)” value (37 °C) is -2.75 ± 0.21. The corresponding values for CCGGAGCAAUAUUACGUCGA are -3.12 ± 0.2 and -1.89 ± 0.19. For CCGGAGCAAUAUUACGUGCC the same measures were -2.1 ± 0.38 and -2.94 ± 0.35. The corresponding values for CCGGAGCAAUAUUACGUGCG are -1.42 ± 0.077 and -0.676 ± 0.091. Consider CCGUAGCAAUAUUACGAAUG, for which the “self-splicing fitness (ln)” value reads like this: (30 °C) -0.463 ± 0.099; (37 °C) 0.0216 ± 0.11. For the sequence CCGUAGCAAUAUUACGAGAA, the “self-splicing fitness (ln)” value was -2.42 ± 0.42 (30 °C) and -1.03 ± 0.44 (37 °C). On to CCGUAGCAAUAUUACGCAGU, for which the “self-splicing fitness (ln)” value is -2.54 ± 0.18 (30 °C) and -2.6 ± 0.27 (37 °C). The corresponding values for CCGUAGCAAUAUUACGCAUU are -3.54 ± 0.31 and -2.9 ± 0.47.

Consider CCGUAGCAAUAUUACGGAUC, for which the “self-splicing fitness (ln)” value is -3.86 ± 0.2 (30 °C) and -2.03 ± 0.19 (37 °C). For CCGUAGCAAUAUUACGGCGA, the “self-splicing fitness (ln)” value by setting is: (30 °C) -2.54 ± 0.21; (37 °C) -2.62 ± 0.25. The corresponding values for CCGUAGCAAUAUUACGGCUA are -3.49 ± 0.34 and -3.04 ± 0.35. With CCGUAGCAAUAUUACGGUAG, the “self-splicing fitness (ln)” value is -3.48 ± 0.2 (30 °C) and -2.97 ± 0.24 (37 °C). Take CCGUAGCAAUAUUACGUACA: the “self-splicing fitness (ln)” value is, setting by setting: (30 °C) -2.04 ± 0.14; (37 °C) -1.8 ± 0.19. For CCGUAGCAAUAUUACGUACU, for the setting “37 °C”, the “self-splicing fitness (ln)” value is -2.03 ± 0.32. Turning to CCGUAGCAAUAUUACGUCAC, where the note is “30 °C”, the “self-splicing fitness (ln)” value was -1.02 ± 0.27.

Consider CCUAAGCAAUAUUACGAUAA, for which the “self-splicing fitness (ln)” value (30 °C) is -2.87 ± 0.2 and the “self-splicing fitness (ln)” value (37 °C) is -3.37 ± 0.28. In the case of CCUAAGCAAUAUUACGAUAC, the “self-splicing fitness (ln)” value was -3.63 ± 0.4 (30 °C) and -2.3 ± 0.27 (37 °C). Regarding CCUAAGCAAUAUUACGAUGU, the “self-splicing fitness (ln)” value is -2.84 ± 0.12 (30 °C) and -2.03 ± 0.15 (37 °C). Take CCUAAGCAAUAUUACGAUUG: the “self-splicing fitness (ln)” value is, setting by setting: (30 °C) -3.51 ± 0.19; (37 °C) -1.68 ± 0.13.

CCUAAGCAAUAUUACGCACU: the “self-splicing fitness (ln)” value was -2.71 ± 0.23 (30 °C) and -2.96 ± 0.23 (37 °C). On to CCUAAGCAAUAUUACGCCUC, for which, for the setting “30 °C”, the “self-splicing fitness (ln)” value was -2.59 ± 0.36. Regarding CCUAAGCAAUAUUACGCGCC, the “self-splicing fitness (ln)” value reads like this: (30 °C) -2.47 ± 0.26; (37 °C) -1.63 ± 0.33. The corresponding values for CCUAAGCAAUAUUACGCGGA are -2.38 ± 0.19 and -3.62 ± 0.46. The corresponding values for CCUAAGCAAUAUUACGCUAG are -3.75 ± 0.47 and -1.64 ± 0.3. For CCUAAGCAAUAUUACGCUUG, the “self-splicing fitness (ln)” value (30 °C) is -4.18 ± 0.36 and the “self-splicing fitness (ln)” value (37 °C) is -2.98 ± 0.26. CCUAAGCAAUAUUACGGAAC: the “self-splicing fitness (ln)” value was -3.35 ± 0.3 (30 °C) and -1.68 ± 0.24 (37 °C). Take CCUAAGCAAUAUUACGGACG: the “self-splicing fitness (ln)” value was -1.15 ± 0.059 (30 °C) and -0.303 ± 0.08 (37 °C). For the sequence CCUAAGCAAUAUUACGGGGU, the “self-splicing fitness (ln)” value is, setting by setting: (30 °C) -3.28 ± 0.17; (37 °C) -2.82 ± 0.17. The corresponding values for CCUAAGCAAUAUUACGGUAA are -2.48 ± 0.24 and -2.73 ± 0.25. For CCUAAGCAAUAUUACGGUGC the same measures were -2.79 ± 0.28 and -2.19 ± 0.32. On to CCUAAGCAAUAUUACGGUGU, for which the “self-splicing fitness (ln)” value is, setting by setting: (30 °C) -4.62 ± 0.23; (37 °C) -1.89 ± 0.16.

In the case of CCUAAGCAAUAUUACGUAGG, the “self-splicing fitness (ln)” value (30 °C) is -3.82 ± 0.15 and the “self-splicing fitness (ln)” value (37 °C) is -2.94 ± 0.22. Take CCUAAGCAAUAUUACGUCAC: the “self-splicing fitness (ln)” value (37 °C) was -1.54 ± 0.49. In the case of CCUAAGCAAUAUUACGUGAC, the “self-splicing fitness (ln)” value (30 °C) was -4.32 ± 0.3. Consider CCUAAGCAAUAUUACGUGCC, for which the “self-splicing fitness (ln)” value (30 °C) is -2.84 ± 0.3.

For CCUCAGCAAUAUUACGACCG, the “self-splicing fitness (ln)” value (30 °C) is -0.986 ± 0.093 and the “self-splicing fitness (ln)” value (37 °C) is -0.493 ± 0.095. Consider CCUCAGCAAUAUUACGAGGU, for which the “self-splicing fitness (ln)” value by setting is: (30 °C) -3.38 ± 0.21; (37 °C) -2.62 ± 0.19. Turning to CCUCAGCAAUAUUACGCAUU, the “self-splicing fitness (ln)” value (30 °C) was -3.81 ± 0.19 and the “self-splicing fitness (ln)” value (37 °C) was -2.3 ± 0.22. With CCUCAGCAAUAUUACGCCGC, under “30 °C”, the “self-splicing fitness (ln)” value was -3.72 ± 0.37.

In the case of CCUCAGCAAUAUUACGCGAA, the “self-splicing fitness (ln)” value runs as follows: (30 °C) -3.88 ± 0.34; (37 °C) -3.79 ± 0.34.

For the sequence CCUCAGCAAUAUUACGCGAC, the “self-splicing fitness (ln)” value by setting is: (30 °C) -3.47 ± 0.28; (37 °C) -2.08 ± 0.22. Take CCUCAGCAAUAUUACGCUAA: the “self-splicing fitness (ln)” value (30 °C) is -2.79 ± 0.14 and the “self-splicing fitness (ln)” value (37 °C) was -3.05 ± 0.2. On to CCUCAGCAAUAUUACGCUGC, for which the “self-splicing fitness (ln)” value (30 °C) was -3.53 ± 0.21 and the “self-splicing fitness (ln)” value (37 °C) was -1.69 ± 0.24.

On to CCUCAGCAAUAUUACGGAUA, for which the “self-splicing fitness (ln)” value was -1.87 ± 0.15 (30 °C) and -2.41 ± 0.24 (37 °C). For CCUCAGCAAUAUUACGGUCA the same measures were -3.48 ± 0.26 and -2.04 ± 0.15. The corresponding values for CCUCAGCAAUAUUACGGUGU are -3.9 ± 0.27 and -1.76 ± 0.16.

For the sequence CCUCAGCAAUAUUACGUAGC, the “self-splicing fitness (ln)” value was -3.9 ± 0.19 (30 °C) and -2.73 ± 0.28 (37 °C). For CCUCAGCAAUAUUACGUAGG the same measures were -2.71 ± 0.18 and -2.38 ± 0.3. The corresponding values for CCUCAGCAAUAUUACGUGAG are -0.99 ± 0.057 and -0.881 ± 0.071.

As for CCUCAGCAAUAUUACGUGCA, the “self-splicing fitness (ln)” value is -4.09 ± 0.37 (30 °C) and -2.32 ± 0.35 (37 °C). The corresponding values for CCUCAGCAAUAUUACGUUGC are -3.32 ± 0.28 and -2.52 ± 0.32. For CCUCAGCAAUAUUACGUUUA the same measures were -4.17 ± 0.2 and -2.57 ± 0.14. For CCUGAGCAAUAUUACGACCG, the “self-splicing fitness (ln)” value reads like this: (30 °C) -3.73 ± 0.39; (37 °C) -2.5 ± 0.37. The corresponding values for CCUGAGCAAUAUUACGAGAA are -3.46 ± 0.4 and -1.79 ± 0.29. For CCUGAGCAAUAUUACGAGAC the same measures were -2.85 ± 0.33 and -0.69 ± 0.33. The corresponding values for CCUGAGCAAUAUUACGAUUU are -3.27 ± 0.19 and -2.3 ± 0.16.

In the case of CCUGAGCAAUAUUACGCACA, the “self-splicing fitness (ln)” value reads like this: (30 °C) -1.53 ± 0.17; (37 °C) -1.6 ± 0.35. For CCUGAGCAAUAUUACGCGAU the same measures were -3.71 ± 0.18 and -2.25 ± 0.14.
